Assay results taken from patent publication US20150224177A1 (priority 2014, published 2015).
Entries after “also recorded” stand apart in the source; their conditions may differ.

Columns and labels:
B. pseudomallei isolates = experiment: microbe, parasite or virus in culture; format: cell-based, Burkholderia pseudomallei
[1] = tested on: B. pseudomallei strains 1026b and MSHR 305; format: cell-based, Burkholderia pseudomallei
Bacillus anthracis = format: cell-based
Burkholderia mallei = experiment: microbe, parasite or virus in culture; format: cell-based
Yersinia pestis = experiment: microbe, parasite or virus in culture; format: cell-based

B1: bovine lactoferrin (protein, UniProt P24627 20-708, looked up)
Lactotransferrin: APRKNVRWCTISQPEWFKCRRWQWRMKKLGAPSITCVRRAFALECIRAIAEKKADAVTLDGGMVFEAGRDPYKLRPVAAEIYGTKESPQTHYYAVAVVKKGSNFQLDQLQGRKSCHTGLGRSAGWIIPMGILRPYLSWTESLEPLQGAVAKFFSASCVPCIDRQAYPNLCQLCKGEGENQCACSSREPYFGYSGAFKCLQDGAGDVAFVKETTVFENLPEKADRDQYELLCLNNSRAPVDAFKECHLAQVPSHAVVARSVDGKEDLIWKLLSKAQEKFGKNKSRSFQLFGSPPGQRDLLFKDSALGFLRIPSKVDSALYLGSRYLTTLKNLRETAEEVKARYTRVVWCAVGPEEQKKCQQWSQQSGQNVTCATASTTDDCIVLVLKGEADALNLDGGYIYTAGKCGLVPVLAENRKSSKHSSLDCVLRPTEGYLAVAVVKKANEGLTWNSLKDKKSCHTAVDRTAGWNIPMGLIVNQTGSCAFDEFFSQSCAPGADPKSRLCALCAGDDQGLDKCVPNSKEKYYGYTGAFRCLAEDVGDVAFVKNDTVWENTNGESTADWAKNLNREDFRLLCLDGTRKPVTEAQSCHLAVAPNHAVVSRSDRAAHVKQVLLHQQALFGKNGKNCPDKFCLFKSETKNLLFNDNTECLAKLGGRPTYEEYLGTEYVTAIANLKKCSTSPLLEACAFLTR
Minimal Inhibitory Concentration (B. pseudomallei isolates): >91,429 μg/mL | concentration of bLF at which all isolates were capable of growth (highest concentration tested) (B. pseudomallei isolates): > 91.429 mg/mL | inhibition of growth, overall result in words (B. pseudomallei isolates): not directly inhibited | bacterial growth by T24h compared with positive/untreated control [1]: grew to match or exceed the concentration of the positive control; also recorded: replicate to the same levels as those in the untreated controls | bactericidal effect, overall result in words [1]: much more minor direct bactericidal effect | initial reduction in bacterial concentration [1]: 1 to 2 log10 | kill curve: evolution of microbial load during time [1]: impact can be seen at T6h (standalone); also recorded: impact can be seen at T4h (standalone) | Minimal Inhibitory Concentration (Bacillus anthracis): >91,400 μg/mL | inhibition of growth, result in words (Bacillus anthracis): no observed inhibition of growth | Minimal Inhibitory Concentration (Burkholderia mallei): ≧91,400 μg/mL | inhibition of growth, result in words (Burkholderia mallei): generally did not inhibit B. mallei growth by itself | Minimal Inhibitory Concentration (Yersinia pestis): >91,400 μg/mL | inhibition of growth, result in words (Yersinia pestis): did not inhibit Y. pestis growth at any concentration by itself
